Experimental findings from paper PMC4333402 (Nucleic Acids Research, 2014) are described below.

The data set deals with the molecule itself. The data set is described as follows: crystal structure.

B1: Pyrococcus furiosus Cmr4 (natural protein, UniProt Q8U1S9 1-295, looked up)
chain: MKAYLVGLYTLTPTHPGSGTELGVVDQPIQRERHTGFPVIWGQSLKGVLRSYLKLVEKVDEEKINKIFGPPTEKAHEQAGLISVGDAKILFFPVRSLKGVYAYVTSPLVLNRFKRDLELAGVKNFQTEIPELTDTAIASEEITVDNKVILEEFAILIQKDDKGILESVVKAIEQAFGNEMAEKIKGRIAIIPDDVFRDLVELSTEIVARIRINAETGTVETGGLWYEEYIPSDTLFYSLILVTPRAKDNDMALIKEVLGKINGKYLQIGGNETVGKGFVKVTLKEVTNNGGTHAK
Consider B1, for which the binding result is on record as “binds”.
